Test [1] has as its target GST-Actin binding protein 1 (Abp1) SH3 domain (mouse) (UniProt Q62418).
The target of test [2] is GST-Cdc42 interacting protein 4 (CIP4) SH3 domain (human) (UniProt Q15642).
Test [3] concerns the target GST-Formin Binding Protein 17 (FBP17) SH3 domain (human) (UniProt Q96RU3).
In test [4] the target is GST-amphiphysin I SH3 domain (human) (UniProt P49418).
Test [5] deals with GST-amphiphysin II SH3 domain (human) (UniProt O00499).
The target of test [6] is GST-cortactin SH3 domain (mouse) (UniProt Q60598).
Chain of GST-cortactin SH3 domain (mouse) (Q60598 488-546): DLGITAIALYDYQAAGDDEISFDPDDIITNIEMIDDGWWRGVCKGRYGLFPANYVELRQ
The target in test [7] is GST-endophilin I SH3 domain (mouse) (UniProt Q62420).
Chain of GST-endophilin I SH3 domain (mouse) (Q62420 290-349): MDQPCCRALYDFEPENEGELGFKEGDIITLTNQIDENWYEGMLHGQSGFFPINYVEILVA
Test [8] addresses GST-intersectin I SH3A domain (Xenopus laevis).
Test [9] has as its target GST-intersectin I SH3C domain (Xenopus laevis).
In test [10] the target is GST-intersectin I SH3E domain (Xenopus laevis).
The target of test [11] is GST-p85 SH3 domain (bovine) (UniProt P23727).
In test [12] the target is GST-sorting-nexin 9 (SNX9) SH3 domain (human) (UniProt Q9Y5X1).
Chain of GST-sorting-nexin 9 (SNX9) SH3 domain (human) (Q9Y5X1 1-62): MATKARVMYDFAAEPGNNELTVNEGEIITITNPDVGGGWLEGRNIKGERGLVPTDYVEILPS
Test [13] concerns the target GST-syndapin I SH3 domain (mouse) (UniProt Q61644).
The target in test [14] is GST-Actin binding protein 1 (Abp1) SH3 domain (mouse) (UniProt Q62418). This is another data set of the same source.
Chain of GST-Actin binding protein 1 (Abp1) SH3 domain (mouse) (Q62418 377-436): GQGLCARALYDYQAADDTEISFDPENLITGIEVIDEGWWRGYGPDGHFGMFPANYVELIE
Test [15] concerns the target GST-Cdc42 interacting protein 4 (CIP4) SH3 domain (human) (UniProt Q15642). This is another data set of the same source.
Test [16] has as its target GST-Formin Binding Protein 17 (FBP17) SH3 domain (human) (UniProt Q96RU3). The source holds these as a separate data set.
The target of test [17] is GST-amphiphysin I SH3 domain (human) (UniProt P49418). This is another data set of the same source.
Test [18] has as its target GST-amphiphysin II SH3 domain (human) (UniProt O00499). This is another data set of the same source.
In test [19] the target is GST-cortactin SH3 domain (mouse) (UniProt Q60598). The source holds these as a separate data set.
In test [20] the target is GST-endophilin I SH3 domain (mouse) (UniProt Q62420). The source holds these as a separate data set.
The target in test [21] is GST-intersectin I SH3C domain (Xenopus laevis). The source holds these as a separate data set.
The target of test [22] is GST-intersectin I SH3E domain (Xenopus laevis). This is another data set of the same source.
Test [23] deals with GST-p85 SH3 domain (bovine) (UniProt P23727). This is another data set of the same source.
Test [24] has as its target GST-syndapin I SH3 domain (mouse) (UniProt Q61644). The source holds these as a separate data set.

Here are results for two substances from PMC4687643.

Chain of GST-amphiphysin II SH3 domain (human) (O00499 520-593): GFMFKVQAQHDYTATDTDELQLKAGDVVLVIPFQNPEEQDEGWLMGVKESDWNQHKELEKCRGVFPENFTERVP
Chain of GST-Formin Binding Protein 17 (FBP17) SH3 domain (human) (Q96RU3 550-611): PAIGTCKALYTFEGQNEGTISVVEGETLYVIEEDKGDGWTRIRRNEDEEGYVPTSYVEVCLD
Chain of GST-amphiphysin I SH3 domain (human) (P49418 622-695): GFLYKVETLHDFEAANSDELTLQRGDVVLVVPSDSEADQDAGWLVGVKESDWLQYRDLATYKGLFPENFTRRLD
Chain of GST-syndapin I SH3 domain (mouse) (Q61644 382-441): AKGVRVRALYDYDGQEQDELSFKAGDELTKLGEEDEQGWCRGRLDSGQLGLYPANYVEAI
Chain of GST-Cdc42 interacting protein 4 (CIP4) SH3 domain (human) (Q15642 540-601): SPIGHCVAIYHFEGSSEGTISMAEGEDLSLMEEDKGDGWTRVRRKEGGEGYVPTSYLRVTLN

“recombinant human dynamin I middle domain splice variant Iab (enzyme)”: the rate of dynamin GTPase activity stimulated by the GST-SH3 domain (ELIPA, 30 mM NaCl, basal rate subtracted) (μmoles Pi/mg of dyn/min) in test [1] came to 0.011; in test [2], 0; in test [3], 0.084; in test [4] it was 0.032; in test [5], 0.01; in test [6] it was 0.03. Besides, the rate of dynamin GTPase activity stimulated by the GST-SH3 domain (ELIPA, 30 mM NaCl, basal rate subtracted) (μmoles Pi/mg of dyn/min) was 0.032 in [7]; 0.026 in [8]; 0 in [9]; 0.023 in test [10]; 0.014 in [11]; 0.03 in test [12]. In test [13], the rate of dynamin GTPase activity stimulated by the GST-SH3 domain (ELIPA, 30 mM NaCl, basal rate subtracted) (μmoles Pi/mg of dyn/min) turned out to be 0.026. Besides, the dynamin GTPase activity stimulated by the GST-SH3 domain (ELIPA, 150 mM NaCl) (μmoles Pi/mg of dynamin) in test [14], in [15], in test [16], in test [17], in test [18] and in test [19] was < 0.03 throughout. In addition, the dynamin GTPase activity stimulated by the GST-SH3 domain (ELIPA, 150 mM NaCl) (μmoles Pi/mg of dynamin) in [20], in test [21], in [22], in test [23] and in [24] was < 0.03 throughout.
On to “recombinant human dynamin I middle domain splice variant Ibb (enzyme)”, for which the rate of dynamin GTPase activity stimulated by the GST-SH3 domain (ELIPA, 30 mM NaCl, basal rate subtracted) (μmoles Pi/mg of dyn/min) in test [1] was 0.011; in [2], 0.019; in test [3], 0.098; in [4], 0.056; in test [5], 0.013; in [6] it was 0.102. Moreover, the rate of dynamin GTPase activity stimulated by the GST-SH3 domain (ELIPA, 30 mM NaCl, basal rate subtracted) (μmoles Pi/mg of dyn/min) was 0.016 in test [7]; 0.075 in test [8]; 0.017 in test [9]; 0.036 in test [10]; 0.02 in [11]; 0.041 in test [12]. The rate of dynamin GTPase activity stimulated by the GST-SH3 domain (ELIPA, 30 mM NaCl, basal rate subtracted) (μmoles Pi/mg of dyn/min) in [13] amounted to 0.068. Moreover, the dynamin GTPase activity stimulated by the GST-SH3 domain (ELIPA, 150 mM NaCl) (μmoles Pi/mg of dynamin) in test [14], in test [15], in test [16], in test [17], in test [18] and in test [19] was < 0.03 in each case. The dynamin GTPase activity stimulated by the GST-SH3 domain (ELIPA, 150 mM NaCl) (μmoles Pi/mg of dynamin) in test [20], in test [21], in test [22], in test [23] and in test [24] was < 0.03 in each case.
